Assay results published in patent publication US20260297188 (published 2026).
Each block holds one binder with its values, some of them ahead of it.

Molecular target: T1, human NKp46 ECD (human)
T1 chain: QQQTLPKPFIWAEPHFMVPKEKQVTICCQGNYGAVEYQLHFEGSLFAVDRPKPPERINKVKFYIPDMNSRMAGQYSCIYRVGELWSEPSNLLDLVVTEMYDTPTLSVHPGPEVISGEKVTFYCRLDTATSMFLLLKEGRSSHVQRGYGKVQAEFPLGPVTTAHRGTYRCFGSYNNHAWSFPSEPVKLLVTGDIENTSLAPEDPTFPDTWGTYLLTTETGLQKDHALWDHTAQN
Experiment: SPR, 25C

B2: IP-46-3 (antibody, V domains shown)
VH: EVQLQQSGPELVKPGASVKISCKTSGYTFTEYTMHWVKQSHGKSLEWIGGISPNIGGTSYNQKFKGKATLTVDKSSSTAYMELRSLTSEDSAVYYCARRGGSFDYWGQGTTLTVSS
VL: DIVMTQSPATLSVTPGDRVSLSCRASQSISDYLHWYQQKSHESPRLLIKYASQSISGIPSRFSGSGSGSDFTLSINSVEPEDVGVYYCQNGHSFPLTFGAGTKLELK
Kd: 0.361 nM

B3: ch3-7 (antibody, V domains shown)
VH: QSLEESGGRLVTPGTPLTLTCTVSGFSPSSYYMSWVRQAPGKGLEYIGIIFSGGSTWYASWAKGRVTISRTSTTVDLKMTSLTTEDTATYFCARGDAVGSGYWGLWGPGTLVTVSS
VL: AFELTQTPSSVEAAVGGTVTINCQASQDIYIYLAWYQQKPGQPPKLLIYSASTLASGVSSRFTGSRSGTQFTLTISDLEPADAATYYCQSYDGTSNTGFGGGTEVVVR
Kd: 0.0199 nM

Continued, values first:

Kd: 0.194 nM
B1: ch5-13 (antibody, V domains shown)
VH: QSVEESGGRLVTPGTPLTLTCTVSGFSLSSYHMSWVRQAPGKGLEWIGYILANTDSYYANWAKGRFTISKTSTTVDLKITSPTTEDTATYFCARYDNHDAAYSTLWGPGTLVTVSS
VL: AYDMTQTPASVEVAVGGTVTIKCQASQSISTALAWYQQKPGQPPKLLIYKASTLASGVSSRFKGSGSGTQFTLTISGVEPADAATYYCQQGYSRSNVDNVFGGGTEVVVK

Kd: 0.0209 nM
B4: ch6-1 (antibody, V domains shown)
VH: QSLEESGGGLVQPEGSLTLTCTASGFSFSSSAWICWVRQAPGKGLEWIGCINTVSVNAYYASWAKGRFTISKTSSTTVTLQVTSLTAADTATHFCARNPYNSLRLWGPGTLVTVSS
VL: DVVMTQTPASVSEPVGGTITINCQASENIYSSLAWYQQKPGQPPKLLMYDVSDLASGVPSRFSGSGSGTEFALTISDVQPDDAATYFCLGGYPSNNYRMAFGGGTEVVVK
